Entries after “also recorded” stand apart in the source; their conditions may differ.
Legend:
DU-145 cells = assay: Modified Boyden chamber cell migration assay; format: cell-based, human
Description: FIGS. 2(A-E) illustrate EphA activation inhibited DU-145 cell migration. (A) Expression of c-Met is elevated in cell lines derived from more malignant prostate cancer. Total cellular proteins were immunoblotted with anti-human c-Met. An anti-tubulin blot was used as a control for protein loading. (B) In a modified Boyden chamber assay, DU-145 cells were placed in the upper chamber and allowed to migrate to the lower chamber containing indicated reagents. After 8 hours, cells were stained with crystal violet and cells remaining in the upper chamber were removed. Top panel: Cells migrated to the undersides of membrane were counted; six high power fields were counted. Results represent means±S.D. Representative fields were shown in the lower panel. (C) Ephrin-A1-Fc inhibits DU-145 cell migration when HGF/SF was uniformly presented in both sides of membranes. The experiment was carried out as described in A. (D) Inhibition of cell scattering by immobilized ephrin-A1 in a SOIL assay (Method). Ephrin-A1-Fc or control Fc was immobilized on 6-well culture dishes. Freshly confluent DU-145 cells on cover slips were transferred to the coated surfaces. Cells were stimulated with HGF/SF to induce migration off the cover slips to immobilized Fc or ephrin-A1-Fc. After 48 hours, cells were fixed and stained with crystal violet. The cells that had migrated to the coated surface were photographed after removing cover slips. (E) DU-145 cells were grown to confluency and a wound was generated by scratching monolayer with a 200 μl pipette tip. The wound healing was recorded prior to and 12 hours after the addition of Fc, ephrin-A1-Fc (1 μg/ml) and/or HGF/SF (20 ng/ml). Representative results from 3 independent experiments are shown.
Modified Boyden chambers of 8 μm pore size (Costar) were used for migration assay. Both sides of the membranes were coated with 10 μg/ml collagen at 4° C. overnight. […] Cells migrated to the underside of the membrane were counted under 200× magnification.

E-cadherin = E-cadherin immunoblot and immunofluorescence; format: cell-based, human
Description: FIGS. 5(A-E) illustrate (A) Ephrin-A1 co-stimulation inhibited the loss of E-cadherin induced by HGF/SF. DU-145 cells were treated as indicated for 24 or 48 hours. Cell lysates were subject to anti-E-cadherin immunoblot. Same membrane was stripped and blotted with anti-ERK1 as loading control. Relative intensity of E-cadherin=intensities of E-cadherin band/intensity of ERK band. (B) Immunofluorescent staining of E-cadherin after 24 hours of the indicated treatment. Note almost exclusive cytoplasmic staining pattern in HGF/SF treated cells, while cotreatment with ephrin-A1 restored significant levels of E-cadherin at cell-cell junction. (C) Ephrin-A1-Fc pre-treatment preserved E-cadherin expression in HGF/SF treated cells. DU-145 cells were pre-treated with Fc or ephrin-A1-Fc for 24 hours. HGF/SF was then added. The cells were cultured for another 24 hours and lysed for anti-E-cadherin immunoblot. Anti-ERK1 was used as loading control. (D) Cells grown on cover slips received same treatment as in C were subject to anti-E-cadherin immunofluorescence analysis. Note the significant preservation of E-cadherin localization at cell-cell adhesion site by ephrin-A1-Fc compared with Fc control. (E) Numbers of total cells and cells without contact with other cells were counted in 6-8 randomly chosen fields. * Fc/HGF/SF vs. ephrin-A1-Fc/HGF/SF: p=4.6×10^−7.
Cells were cultured on cover slips in 24-well dishes for 24 hours, fixed in 4% formaldehyde for 20 minutes and permeabilized with 0.5% NP-40 for 10 minutes. Blocking was performed using blocking solution containing 2% BSA and 2% goat serum in PBS. Subsequently, cells were incubated with 1 μg/ml anti-EphA2 or anti-E-cadherin antibody. A Texas Red-conjugated goat anti-rabbit IgG or FITC-conjugated rabbit anti-mouse IgG was used to visualize the primary antibodies. Vector-Shield mounting solution containing DAPI (Vector Laboratories) was used to mount the cover slips onto slides.
Cells cultured in 6 well plates at 70-80% confluence were stimulated with 0.5 μg/ml Fc, 1 μg/ml epnrinA1-Fc or 20 ng/ml HGF/SF or their combinations as indicated. After stimulation, cells were lysed in RIPA buffer (20 mM Tris, pH7.4, 125 mM NaCl, 20 mM NaF, 0.1% SDS, 10% glycerol, 0.5% sodium deoxycholate, and 1% TX-100, 0.5 mM Na3VO4) containing protease inhibitors (1 mM phenylmethylsulphonyl fluoride, and 2 μg/ml each of aprotinin and leupeptin). Cell lysates were clarified by centrifugation at 13,000 rpm for 5 min. Immunoprecipitation was carried out by adding anti-EphA2 antibody to clarified cell lysates and incubated for 1 hour at 4° C. The immunocomplex was captured using γ-bind beads (Pharmacia). Cell lysates or precipitated proteins were separated on 4-20% Tris-glycine gels (Invitrogen) and transferred to Immobilon-P PVDF membranes (Millipore). […] For quantitative analysis, band densities were measured using KODAK 1D imagine analysis software (Eastman Kodak Company).

EphA2 = EphA2 (Homo sapiens, UniProt P29317); assay: EphA2 activation and ERK status in DU-145 cells; format: cell-based; parameters: endogenous in cells; host or cells: DU-145 cells
Description: FIGS. 1(A-D) illustrate (A) EphA2 is the primary EphA kinase expressed on human prostate cancer cells. Cell surface proteins were labeled with membrane impermeable biotin (Method). Top panel: Saturating amount of ephrin-A1-Fc (EA1-Fc) was used to precipitate most EphA kinases. Lower panel: EphA2 was first immunodepleted from cell lysates with an EphA2-specific antibody. Saturating amount of ephrin-A1-Fc was then added to the EphA2-depleted cell lysates to precipitate other members of EphA kinases. The precipitates were subject immunoblot with HRP-labeled avidin. (B) Expression of EphA2, but not other EphA kinases and ephrin-As, is elevated in cell lines derived from more malignant prostate cancer. Total cellular proteins were immunoblotted with the indicated antibodies. (C) Immunofluorescence staining of EphA2. Human prostate cancer cells grown on cover slip were stained with anti-EphA2 antibody. Texas-Red labeled secondary was used to visualize the bound primary antibody. […] To determine the ERK activation status, total cell lysates were analyzed by immunoblot using anti-phospho ERK (p-ERK) antibody. […]
Cells cultured in 6 well plates at 70-80% confluence were stimulated with 0.5 μg/ml Fc, 1 μg/ml epnrinA1-Fc or 20 ng/ml HGF/SF or their combinations as indicated. […] For quantitative analysis, band densities were measured using KODAK 1D imagine analysis software (Eastman Kodak Company).

Sequence of EphA2 (P29317 24-976): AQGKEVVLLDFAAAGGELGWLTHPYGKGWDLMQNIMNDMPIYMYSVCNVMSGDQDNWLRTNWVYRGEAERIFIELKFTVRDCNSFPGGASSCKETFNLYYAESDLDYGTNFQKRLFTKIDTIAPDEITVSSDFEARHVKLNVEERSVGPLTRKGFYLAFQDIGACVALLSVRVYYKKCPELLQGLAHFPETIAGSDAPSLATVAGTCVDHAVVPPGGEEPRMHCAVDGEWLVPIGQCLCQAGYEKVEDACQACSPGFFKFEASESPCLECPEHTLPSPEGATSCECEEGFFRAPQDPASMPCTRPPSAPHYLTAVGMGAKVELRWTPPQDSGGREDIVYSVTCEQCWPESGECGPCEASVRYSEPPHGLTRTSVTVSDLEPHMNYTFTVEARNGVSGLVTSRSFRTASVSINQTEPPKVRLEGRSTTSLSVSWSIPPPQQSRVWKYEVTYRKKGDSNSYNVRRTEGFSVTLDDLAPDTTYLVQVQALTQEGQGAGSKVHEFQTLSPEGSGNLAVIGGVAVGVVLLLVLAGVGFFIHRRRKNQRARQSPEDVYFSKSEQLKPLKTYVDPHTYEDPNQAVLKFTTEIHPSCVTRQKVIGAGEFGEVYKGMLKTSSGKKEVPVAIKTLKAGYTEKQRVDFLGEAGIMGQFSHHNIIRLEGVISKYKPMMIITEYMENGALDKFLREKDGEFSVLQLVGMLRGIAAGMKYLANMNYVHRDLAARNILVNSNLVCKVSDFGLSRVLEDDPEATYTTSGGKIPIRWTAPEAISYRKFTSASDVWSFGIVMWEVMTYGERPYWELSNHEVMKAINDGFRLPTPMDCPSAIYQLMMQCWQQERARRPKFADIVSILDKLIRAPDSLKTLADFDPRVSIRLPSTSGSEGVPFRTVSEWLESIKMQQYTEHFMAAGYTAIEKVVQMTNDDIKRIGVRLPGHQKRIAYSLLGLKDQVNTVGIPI

B1: ephrin-A1-Fc: ephrin-A1 dimerized by fusion to the heavy chain of human IgG1 (protein)
chain: DRHTVFWNSSNPKFRNEDYTIHVQLNDYVDIICPHYEDHSVADAAMEQYILYLVEHEEYQLCQPQSKDQVRWQCNRPSAKHGPEKLSEKFQRFTPFTLGKEFKEGHSYYYISKPIHQHEDRCLRLKVTVSGKITHSPQAHDNPQEKRLAADDPEVRVLHSIGHS
modifications: left off: a dimerising Fc or GST
notes: ephrin-A1 dimerized by fusion to the heavy chain of human IgG1
DU-145 cells; HGF/SF both sides, ligand in lower chamber only
  cell migration with HGF/SF on both sides: significantly reduced the number of cells migrated
DU-145 cells; HGF/SF in lower chamber
  HGF/SF-stimulated cell migration: potently inhibited
DU-145 cells; lower chamber, 1 μg/ml, 8 hours, vs Fc
  basal cell migration: reduced the basal level of cell migration
E-cadherin; immunoblot
  total E-cadherin, 24 hours pretreatment before HGF/SF: significantly prevented HGF/SF-induced down-regulation of total cellular E-cadherin
E-cadherin; immunoblot, 24 or 48 hours
  total E-cadherin on co-treatment with HGF/SF: significantly preserved
E-cadherin; immunofluorescence
  E-cadherin at cell-cell junction, 24 hours pretreatment before HGF/SF: significant fraction of E-cadherin was retained at cell-cell junction
  E-cadherin at cell-cell junctions on co-treatment with HGF/SF: dramatically retained
E-cadherin; ligand alone vs Fc, immunoblot
  E-cadherin expression: moderately increased E-cadherin expression; also recorded: increased E-cadherin expression at 48 hours
EphA2
  ERK1/2 activity: reduced
  EphA2 activation, time course: readily occurred in two minutes
